The record followed here is patent publication US20100015637A1 (AbbVie / Abbott, published 2010).

Experiment [1] concerns the target human PlGF-1 comprising amino acids 1-137 produced in human embryonic kidney cells (human) (UniProt P49763). The experiment is described as follows: Format 2 …, capture MAb264, detection Pb264; sFlt-1 920 pmol/L (ratio 30).
The target is the same in experiment [2]. Description: Format 1 …, capture 2-826-335, detection 1-255-713; sFlt-1 2300 pmol/L (ratio 75).
Experiment [3] shares this target. The experiment is described as follows: Format 3 Quantikine ELISA, capture MAb264, detection Pb264; sFlt-1 920 pmol/L (ratio 30).
The target is the same in experiment [4]. The experiment is described as follows: Format 2 …, capture MAb264, detection Pb264; sFlt-1 0 pmol/L (ratio 0).
The target is the same in experiment [5]. The experiment is described as follows: Format 2 …, capture MAb264, detection Pb264; sFlt-1 153 pmol/L (ratio 5).
The target is the same in experiment [6]. Description: Format 1 …, capture 2-826-335, detection 1-255-713; sFlt-1 0 pmol/L (ratio 0).
Experiment [7] shares this target. The experiment is described as follows: Format 3 Quantikine ELISA, capture MAb264, detection Pb264; sFlt-1 3067 pmol/L (ratio 100).
The target is the same in experiment [8]. Description: Format 1 …, capture 2-826-335, detection 1-255-713; sFlt-1 920 pmol/L (ratio 30).
Experiment [9] concerns the target recombinant human PlGF-1 (comprising amino acids 1-131) expressed in E. coli (R&D Systems) (human) (UniProt P49763). The experiment is described as follows: … sandwich, capture MAb826, detection pAb264; antigen 60 pg/mL.
For experiment [10] the target is unchanged. Description: … sandwich, capture MAb826, detection pAb264; antigen 0 pg/mL (blank).
The target is the same in experiment [11]. Description: … sandwich, capture MAb255, detection MAb826; antigen 750 pg/mL.
Experiment [12] has as its target T1, CHO human PlGF-1 comprising amino acids 1-137 (human PlGF-1-His (1-131), CHO 6305) (human, UniProt P49763 19-221, N-glycans at N21 (completely glycosylated) and N89 (partially glycosylated)).
T1 construct: Mature human PlGF-1 with 6xHis tag (137 amino acids); also called CHO (1-137)
T1 sequence: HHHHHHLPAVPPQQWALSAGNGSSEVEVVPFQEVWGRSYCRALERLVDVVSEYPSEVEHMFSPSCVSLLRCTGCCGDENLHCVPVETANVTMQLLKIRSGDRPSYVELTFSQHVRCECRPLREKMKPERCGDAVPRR
The experiment is described as follows: … sandwich, capture MAb255, detection pAb264; antigen 1500 pg/mL.

In experiment [13] the target is T2, human PlGF-1 comprising amino acids 1-137 produced in human embryonic kidney cells (human, UniProt P49763 19-221).
T2 construct: Mature human PlGF-1 with 6xHis tag; also called HEK (1-137); full length HEK human PlGF-1 (1-137)
T2 sequence: T1 sequence
The experiment is described as above.

The target of experiment [14] is T3, CHO human PlGF-1 fragment (comprising amino acids 17-131; ATCC PTA-8540) (human, UniProt P49763 35-221).
T3 sequence: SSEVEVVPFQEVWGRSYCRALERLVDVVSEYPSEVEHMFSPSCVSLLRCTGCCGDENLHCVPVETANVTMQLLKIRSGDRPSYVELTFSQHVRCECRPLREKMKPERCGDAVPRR
Described as above.

Experiment [15] deals with T4, human PlGF-1 fragment (comprising amino acids 17-131) produced in human embryonic kidney cells (human, UniProt P49763 35-221).
T4 sequence: T3 sequence
The description is as above.

For experiment [16], the target named is T1, CHO human PlGF-1 comprising amino acids …. The experiment is described as follows: … sandwich, capture MAb255, detection MAb826; antigen 1500 pg/mL. In a few lines: (§1)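 Human PlGF-1 antigen preparations, including CHO cell-expressed recombinant forms, spanned 0 to 1500 pg/mL in a sandwich immunoassay. A monoclonal anti-human PlGF-1 antibody, immobilized on magnetic microparticles through passive coating and EDAC cross-linking, captured the antigen, and an acridinium ester-labeled monoclonal anti-human PlGF-1 antibody detected it. Chemiluminescent relative light units (RLU) were recorded for every antigen level.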

In experiment [17] the target is T2, human PlGF-1 comprising amino acids …. The experiment is described as above. In a few lines: as §1
Experiment [18] deals with T3, CHO human PlGF-1 fragment (comprising …). Described as above. In a few lines: as §1
The target of experiment [19] is T4, human PlGF-1 fragment (comprising amino …). Described as above. The procedure, abridged: as §1

With “native sFlt-1, isolated from human placental tissue (from UniProt P17948 27-687) (receptor)”, the % Inhibition worked out at 91.3% in experiment [1]; 93.6% in [2]; 45% in [3]; 0% in [4]; 64.9% in experiment [5]; 0% in experiment [6]. Besides, the figures for the % Inhibition in experiment [7] and in experiment [8] were 80.9% and 90.7%, respectively. Besides, the PlGF-1 Measured in experiment [1] is 68.2 pg/mL; in experiment [2], 65 pg/mL; in experiment [3] it was 476 pg/mL; in experiment [4], 786 pg/mL; in experiment [5], 276 pg/mL; in experiment [6], 1020 pg/mL. Also, the PlGF-1 Measured worked out at 166 pg/mL in experiment [7] and 95.1 pg/mL in [8].

B1: monoclonal antibody 2-826-335 (produced by murine hybridoma cell line 2-826-335, ATCC PTA-8539) (antibody, mouse IgG1, V domains shown)
VH: QVQLKQSGPGLVQPSQSLSITCTVSGFSLTTYGIHWVRQSPGKGLEWLGVMWSGGDTDYDAAFISRLSISKDNSKSQVFFKMNSLQANDTGIYYCARYRFYGMDYWGQGTSVTVSS
VL: AIQMTQSSSSFSVSLGDRVTITCKASEDIYNRFAWYQQKPGNAPRLLISGAASLEAGVPSRFSGSGSGQDYTLSITSLQTEDVATYYCQQYWSTPWTFGGGTKLEIKR
notes: also called MAb826
For the molecule B1, the RLU in [9] was found to be 65500 RLU; in experiment [10] it was 6410 RLU.

B2: monoclonal antibody 1-255-713 (produced by murine hybridoma cell line 1-255-713, ATCC PTA-8536) (antibody, mouse IgG2a, V domains shown)
VH: QVHLQQSGAELMKPGASVKISCKATGYTFSSYWIEWVKQRPGHGLEWIGEILPGSVSNNFNEKFKDKATLTADPSSNTAYIQVSSLTSEDSAVYYCARSTGFYYGGNYFDHWGQGTTLAVSS
VL: DVVMTQTPLSLPVSPGDQASISCRSSQSLVHSNGHTYLHWYLQKPGQSPKLLIYKVSNRFSGVPDRVSGSGSGTDFTLKISRVEAEDLGVYFCSQSTHVPPTFGGGTKLEIKR
notes: also called MAb255
Take B2: the RLU in experiment [11] worked out at 780000 RLU; in experiment [12], 1.05e+06 RLU; in [13], 2.14e+06 RLU; in [14], 1.25e+06 RLU; in experiment [15], 1.62e+06 RLU; in experiment [16], 734000 RLU. In addition, the RLU worked out at 1.52e+06 RLU in experiment [17], 750000 RLU in experiment [18] and 1.04e+06 RLU in experiment [19].
